IntAct's records for PubMed 31515488

B1: Angiomotin (Homo sapiens), Q4VCS5 (parent)
chain: MRNSEEQPSGGTTVLQRLLQEQLRYGNPSENRSLLAIHQQATGNGPPFPSGSGNPGPQSDVLSPQDHHQQLVAHAARQEPQGQEIQSENLIMEKQLSPRMQNNEELPTYEEAKVQSQYFRGQQHASVGAAFYVTGVTNQKMRTEGRPSVQRLNPGKMHQDEGLRDLKQGHVRSLSERLMQMSLATSGVKAHPPVTSAPLSPPQPNDLYKNPTSSSEFYKAQGPLPNQHSLKGMEHRGPPPEYPFKGMPPQSVVCKPQEPGHFYSEHRLNQPGRTEGQLMRYQHPPEYGAARPAQDISLPLSARNSQPHSPTSSLTSGGSLPLLQSPPSTRLSPARHPLVPNQGDHSAHLPRPQQHFLPNQAHQGDHYRLSQPGLSQQQQQQQQQHHHHHHHQQQQQQQPQQQPGEAYSAMPRAQPSSASYQPVPADPFAIVSRAQQMVEILSDENRNLRQELEGCYEKVARLQKVETEIQRVSEAYENLVKSSSKREALEKAMRNKLEGEIRRMHDFNRDLRERLETANKQLAEKEYEGSEDTRKTISQLFAKNKESQREKEKLEAELATARSTNEDQRRHIEIRDQALSNAQAKVVKLEEELKKKQVYVDKVEKMQQALVQLQAACEKREQLEHRLRTRLERELESLRIQQRQGNCQPTNVSEYNAAALMELLREKEERILALEADMTKWEQKYLEENVMRHFALDAAATVAAQRDTTVISHSPNTSYDTALEARIQKEEEEILMANKRCLDMEGRIKTLHAQIIEKDAMIKVLQQRSRKEPSKTEQLSCMRPAKSLMSISNAGSGLLSHSSTLTGSPIMEEKRDDKSWKGSLGILLGGDYRAEYVPSTPSPVPPSTPLLSAHSKTGSRDCSTQTERGTESNKTAAVAPISVPAPVAAAATAAAITATAATITTTMVAAAPVAVAAAAAPAAAAAPSPATAAATAAAVSPAAAGQIPAAASVASAAAVAPSAAAAAAVQVAPAAPAPVPAPALVPVPAPAAAQASAPAQTQAPTSAPAVAPTPAPTPTPAVAQAEVPASPATGPGPHRLSIPSLTCNPDKTDGPVFHSNTLERKTPIQILGQEPDAEMVEYLI
B2: Segment polarity protein dishevelled homolog DVL-2 (Homo sapiens), O14641 (parent)
chain: MAGSSTGGGGVGETKVIYHLDEEETPYLVKIPVPAERITLGDFKSVLQRPAGAKYFFKSMDQDFGVVKEEISDDNARLPCFNGRVVSWLVSSDNPQPEMAPPVHEPRAELAPPAPPLPPLPPERTSGIGDSRPPSFHPNVSSSHENLEPETETESVVSLRRERPRRRDSSEHGAGGHRTGGPSRLERHLAGYESSSTLMTSELESTSLGDSDEEDTMSRFSSSTEQSSASRLLKRHRRRRKQRPPRLERTSSFSSVTDSTMSLNIITVTLNMEKYNFLGISIVGQSNERGDGGIYIGSIMKGGAVAADGRIEPGDMLLQVNDMNFENMSNDDAVRVLRDIVHKPGPIVLTVAKCWDPSPQAYFTLPRNEPIQPIDPAAWVSHSAALTGTFPAYPGSSSMSTITSGSSLPDGCEGRGLSVHTDMASVTKAMAAPESGLEVRDRMWLKITIPNAFLGSDVVDWLYHHVEGFPERREARKYASGLLKAGLIRHTVNKITFSEQCYYVFGDLSGGCESYLVNLSLNDNDGSSGASDQDTLAPLPGATPWPLLPTFSYQYPAPHPYSPQPPPYHELSSYTYGGGSASSQHSEGSRSSGSTRSDGGAGRTGRPEERAPESKSGSGSESEPSSRGGSLRRGGEASGTSDGGPPPSRGSTGGAPNLRAHPGLHPYGPPPGMALPYNPMMVVMMPPPPPPVPPAVQPPGAPPVRDLGSVPPELTASRQSFHMAMGNPSEFFVDVM
partner: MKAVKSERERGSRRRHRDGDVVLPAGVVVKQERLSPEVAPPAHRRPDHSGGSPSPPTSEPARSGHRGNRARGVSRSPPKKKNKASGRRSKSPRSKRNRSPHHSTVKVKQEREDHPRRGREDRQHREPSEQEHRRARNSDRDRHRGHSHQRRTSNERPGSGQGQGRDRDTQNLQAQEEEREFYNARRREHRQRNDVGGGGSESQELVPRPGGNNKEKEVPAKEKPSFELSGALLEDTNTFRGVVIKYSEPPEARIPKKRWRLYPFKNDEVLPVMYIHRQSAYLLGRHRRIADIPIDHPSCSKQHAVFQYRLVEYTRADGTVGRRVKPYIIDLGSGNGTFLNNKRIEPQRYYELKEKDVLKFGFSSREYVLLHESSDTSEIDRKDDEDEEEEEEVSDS
B3: Endophilin-B2 (Homo sapiens), Q9NR46 (parent)
chain: MDFNMKKLASDAGIFFTRAVQFTEEKFGQAEKTELDAHFENLLARADSTKNWTEKILRQTEVLLQPNPSARVEEFLYEKLDRKVPSRVTNGELLAQYMADAASELGPTTPYGKTLIKVAEAEKQLGAAERDFIHTASISFLTPLRNFLEGDWKTISKERRLLQNRRLDLDACKARLKKAKAAEAKATTVPDFQETRPRNYILSASASALWNDEVDKAEQELRVAQTEFDRQAEVTRLLLEGISSTHVNHLRCLHEFVKSQTTYYAQCYRHMLDLQKQLGRFPGTFVGTTEPASPPLSSTSPTTAAATMPVVPSVASLAPPGEASLCLEEVAPPASGTRKARVLYDYEAADSSELALLADELITVYSLPGMDPDWLIGERGNKKGKVPVTYLELLS
partner: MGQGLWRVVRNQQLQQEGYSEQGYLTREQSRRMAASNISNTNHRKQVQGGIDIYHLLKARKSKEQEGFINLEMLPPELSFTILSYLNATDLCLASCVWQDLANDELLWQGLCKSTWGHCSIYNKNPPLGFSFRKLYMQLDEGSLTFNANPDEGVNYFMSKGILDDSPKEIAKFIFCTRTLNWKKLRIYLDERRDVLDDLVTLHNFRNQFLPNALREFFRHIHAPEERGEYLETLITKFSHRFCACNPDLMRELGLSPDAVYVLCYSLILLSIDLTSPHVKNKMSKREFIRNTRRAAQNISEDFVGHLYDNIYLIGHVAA
B4: Elongin-A2 (Homo sapiens), Q8IYF1 (parent)
chain: MAAGSTTLHAVEKLQVRLATKTEPKKLEKYLQKLSALPMTADILAETGIRKTVKRLRKHQHVGDFARDLAARWKKLVLVDRNTRPGPQDPEESASRQRFGEALQDQEKAWGFPENATAPRSPSHSPEHRRTARRTPPGQQRPHPRSHSREPRAERKCPRIAPADSGRYRASPTRTAPLRMPEGPEPAAPGKQPGRGHTHAAQGGPLLCPGCQGQPQGKAVVSHSKGHKSSRQEKRPLCAQGDWHSPTLIREKSCGACLREETPRMPSWASARDRQPSDFKTDKEGGQAGSGQRVPALEEAPDSHQKRPQHSHSNKKRPSLDGRDPGNGTHGLSPEEKEQLSNDRETQEGKPPTAHLDRTSVSSLSEVEEVDMAEEFEQPTLSCEKYLTYDQLRKQKKKTGKSATTALGDKQRKANESKGTRESWDSAKKLPPVQESQSERLQAAGADSAGPKTVPSHVFSELWDLSEAWMQANYDPLSDSDSMTSQAKPEALSSPKFREEAAFPGRRVNAKMPVYSGSRPACQLQVPTLRQQCAQVLRNNPDALSDVGEVPYWVLEPVLEGWRPDQLYRRKKDNHALVRETDELRRNHCFQDFKEEKPQENKTWREQYLRLPDAPEQRLRVMTTNIRSARGNNPNGREAKMICFKSVAKTPYDTSRRQEKSAGDADPENGEIKPASKPAGSSHTPSSQSSSGGGRDSSSSILRWLPEKRANPCLSSSNEHAAPAAKTRKQAAKKVAPLMAKAIRDYKRRFSRR
partner: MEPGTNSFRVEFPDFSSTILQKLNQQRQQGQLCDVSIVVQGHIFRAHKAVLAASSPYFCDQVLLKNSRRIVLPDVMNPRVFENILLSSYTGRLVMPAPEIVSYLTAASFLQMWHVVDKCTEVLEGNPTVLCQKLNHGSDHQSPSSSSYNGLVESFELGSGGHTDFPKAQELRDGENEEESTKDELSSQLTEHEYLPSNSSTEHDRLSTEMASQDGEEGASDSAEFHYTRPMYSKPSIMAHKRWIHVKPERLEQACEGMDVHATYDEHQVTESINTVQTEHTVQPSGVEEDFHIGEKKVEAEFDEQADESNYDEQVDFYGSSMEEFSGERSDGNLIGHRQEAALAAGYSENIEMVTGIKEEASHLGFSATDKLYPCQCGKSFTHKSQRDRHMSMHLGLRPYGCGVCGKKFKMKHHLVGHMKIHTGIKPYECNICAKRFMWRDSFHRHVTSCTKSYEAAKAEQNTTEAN
B5: Bleomycin hydrolase (Homo sapiens), Q13867 (parent)
chain: MSSSGLNSEKVAALIQKLNSDPQFVLAQNVGTTHDLLDICLKRATVQRAQHVFQHAVPQEGKPITNQKSSGRCWIFSCLNVMRLPFMKKLNIEEFEFSQSYLFFWDKVERCYFFLSAFVDTAQRKEPEDGRLVQFLLMNPANDGGQWDMLVNIVEKYGVIPKKCFPESYTTEATRRMNDILNHKMREFCIRLRNLVHSGATKGEISATQDVMMEEIFRVVCICLGNPPETFTWEYRDKDKNYQKIGPITPLEFYREHVKPLFNMEDKICLVNDPRPQHKYNKLYTVEYLSNMVGGRKTLYNNQPIDFLKKMVAASIKDGEAVWFGCDVGKHFNSKLGLSDMNLYDHELVFGVSLKNMNKAERLTFGESLMTHAMTFTAVSEKDDQDGAFTKWRVENSWGEDHGHKGYLCMTDEWFSEYVYEVVVDRKHVPEEVLAVLEQEPIILPAWDPMGALAE
B6: Microtubule-associated tumor suppressor candidate 2 (Homo sapiens), Q5JR59-3 (parent)
chain: MGHCCCKPYNCLQCLDKTNESALVKEKELSIELANIRDEVAFHTAKCEKLQKEKEELERRFEDEVKRLGWQQQAELQELEERLQLQFEAEMARLQEEHGDQLLSIRCQHQEQVEDLTASHDAALLEMENNHTVAITILQDDHDHKVQELMSTHELEKKELEENFEKLRLSLQDQVDTLTFQSQSLRDRARRFEEALRKNTEEQLEIALAPYQHLEEDMKSLKQVLEMKNQQIHEQEKKILELEKLAEKNIILEEKIQVLQQQNEDLKARIDQNTVVTRQLSEENANLQEYVEKETQEKKRLSRTNEELLWKLQTGDPTSPIKLSPTSPVYRGSSSGPSSPARVSTTPR
partner: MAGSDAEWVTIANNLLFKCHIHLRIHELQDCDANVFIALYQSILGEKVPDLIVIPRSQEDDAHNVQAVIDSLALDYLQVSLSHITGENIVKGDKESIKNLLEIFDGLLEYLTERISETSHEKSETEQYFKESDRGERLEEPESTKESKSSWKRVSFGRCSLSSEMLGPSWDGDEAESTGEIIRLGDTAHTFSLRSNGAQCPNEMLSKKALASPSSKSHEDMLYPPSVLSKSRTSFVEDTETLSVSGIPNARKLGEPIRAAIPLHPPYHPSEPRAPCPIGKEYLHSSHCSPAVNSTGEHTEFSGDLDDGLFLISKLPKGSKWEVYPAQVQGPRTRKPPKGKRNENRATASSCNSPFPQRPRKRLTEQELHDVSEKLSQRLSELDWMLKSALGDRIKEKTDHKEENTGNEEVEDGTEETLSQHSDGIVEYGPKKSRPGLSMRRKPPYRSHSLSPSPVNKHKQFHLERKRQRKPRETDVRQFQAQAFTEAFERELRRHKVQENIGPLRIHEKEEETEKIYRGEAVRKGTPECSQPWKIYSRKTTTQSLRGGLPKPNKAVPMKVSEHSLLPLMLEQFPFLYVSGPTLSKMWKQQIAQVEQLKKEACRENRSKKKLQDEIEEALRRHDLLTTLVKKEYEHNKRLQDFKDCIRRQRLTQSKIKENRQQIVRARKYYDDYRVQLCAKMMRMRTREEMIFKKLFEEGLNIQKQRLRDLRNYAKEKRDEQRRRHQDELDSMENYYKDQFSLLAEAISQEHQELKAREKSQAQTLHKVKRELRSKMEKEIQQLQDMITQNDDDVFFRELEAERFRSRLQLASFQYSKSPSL

Variants of: B1
Settings: with UNC119, Q13432

Variant | effect of a mutation on the interaction
A556V | with no effect

Variants of: B1
Settings: with KRT15, P19012
Sequence of KRT15, P19012 (P19012 whole entry): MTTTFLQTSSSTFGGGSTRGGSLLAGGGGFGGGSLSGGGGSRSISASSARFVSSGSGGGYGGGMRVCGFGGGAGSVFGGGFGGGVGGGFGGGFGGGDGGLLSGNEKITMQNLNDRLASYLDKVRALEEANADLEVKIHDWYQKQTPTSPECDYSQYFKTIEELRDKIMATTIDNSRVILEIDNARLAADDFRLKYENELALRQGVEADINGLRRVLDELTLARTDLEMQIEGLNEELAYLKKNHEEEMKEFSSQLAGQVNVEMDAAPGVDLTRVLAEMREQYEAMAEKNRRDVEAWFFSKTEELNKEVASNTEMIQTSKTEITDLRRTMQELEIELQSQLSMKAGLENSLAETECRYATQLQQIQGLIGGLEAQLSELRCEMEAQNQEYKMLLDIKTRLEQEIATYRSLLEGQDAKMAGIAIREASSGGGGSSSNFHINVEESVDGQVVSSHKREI

Variant | effect of a mutation on the interaction
A556V | with no effect

Variants of: B2
Settings: with snip1_human SNIP1, Q8TAD8

Variant | effect of a mutation on the interaction
A53V | with no effect
T535I | with no effect

Variants of: B3
Settings: with fbx8_human FBXO8, Q9NRD0

Variant | effect of a mutation on the interaction
V223M | with no effect

Variants of: B4
Settings: with zbt43_human ZBTB43, O43298

Variant | effect of a mutation on the interaction
G505R | with no effect
A446T | with no effect
C254F | disrupting interaction strength
D302H | with no effect

Variants of: B5
Settings: with nud12_human NUDT12, Q9BQG2
Sequence of nud12_human NUDT12, Q9BQG2 (Q9BQG2 whole entry): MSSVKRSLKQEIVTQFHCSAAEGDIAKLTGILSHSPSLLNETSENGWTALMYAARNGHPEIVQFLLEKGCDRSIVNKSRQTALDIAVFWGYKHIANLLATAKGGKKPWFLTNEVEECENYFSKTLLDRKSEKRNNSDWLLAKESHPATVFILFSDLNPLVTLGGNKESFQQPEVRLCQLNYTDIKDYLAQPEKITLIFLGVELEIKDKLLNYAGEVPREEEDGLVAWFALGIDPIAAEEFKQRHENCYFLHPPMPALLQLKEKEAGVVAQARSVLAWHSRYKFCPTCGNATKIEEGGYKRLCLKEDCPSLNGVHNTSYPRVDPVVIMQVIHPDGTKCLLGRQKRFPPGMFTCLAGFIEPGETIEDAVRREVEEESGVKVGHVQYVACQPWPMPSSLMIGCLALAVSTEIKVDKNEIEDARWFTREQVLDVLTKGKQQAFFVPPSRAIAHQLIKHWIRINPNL

Variant | effect of a mutation on the interaction
I443V | with no effect

Variants of: B5
Settings: with ntaq1_human NTAQ1, Q96HA8

Variant | effect of a mutation on the interaction
E381K | with no effect

Variants of: B6
Settings: with cep95_human CEP95, Q96GE4

Variant | effect of a mutation on the interaction
A89V | with no effect
